These results are taken from PMC9051087.

Where “and” joins values, the source holds several entries; their conditions need not be identical. Identical values can stand only once.

The target of assay [1] is Planctomycetes bacterium HARP (homolog of Aquifex RNase P) (Planctomycetes bacterium GWF2_40_8). The experiment in a line: SEC; PbHARP wild type and mutants; Superdex 200 Increase 10/300 GL, 20 mM Tris-HCl pH 8.0, 300–500 mM salt for the wild type (it precipitates at lower salt); 300 ug protein, 0.4 mL/min. A general note: SEC sorts molecules by how far they enter the pores of the column.

Assay [2] has the same target. Nature of the assay: cross-linking; BS3 (0, 0.01, 0.03 mM), 25 °C 1 h, 37.6 uM PbHARP without or with 45.1 uM His-7bp pre-tRNA and 10 mM CaCl2; 20 mM HEPES pH 7.9, 500 mM NaCl; SDS-PAGE.
Assay [3] addresses PbHARP A118E/A121E mutant (Planctomycetes bacterium GWF2_40_8). Nature of the assay: SEC; PbHARP wild type and mutants; Superdex 200 Increase 10/300 GL, 20 mM Tris-HCl pH 8.0, 300–500 mM salt for the wild type (it precipitates at lower salt); 300 ug protein, 0.4 mL/min.
Assay [4] deals with Thermococcus celer HARP (Thermococcus celer). The experiment in a line: SEC; TcHARP at higher salt (200–500 mM); Superdex 200 Increase 10/300 GL, 20 mM Tris-HCl pH 8.0.

One may read the stoichiometry N as a count of units in the complex or per binding partner. Turning to “Planctomycetes bacterium HARP (homolog of Aquifex RNase P) (enzyme)”, the stoichiometry N is 2 in assay [1]; 2 and 4 in assay [2].
As for PbHARP A118E/A121E mutant (enzyme), the stoichiometry N in assay [3] was 2.
As to Thermococcus celer HARP (enzyme), the stoichiometry N in assay [4] stood at 2.
